In general, IC50 refers to the point on the concentration scale where inhibition reaches its midpoint.

Among the data in patent publication US20160333065A1 are IC50 values, retold here.

This assay has as its target HLA-A1 (A*0101) (human). As to the kind of experiment: cell competition vs YLEPAC(FI)AKY, stripped CAA B-LCL, FACS.

With ITDDQLLAL (modifications not checked) [PRAME peptide …], the IC50 was determined as 1000 nM.
